From IntAct's records for PubMed 10444103

Legend:
[1] = biological target: mad14_orysj MADS14 (UniProt Q10CQ1)
[2] = biological target: mad14_orysj MADS14 (UniProt Q10CQ1); remark: listed apart in the source

Chain of mad14_orysj MADS14 (Q10CQ1 whole entry): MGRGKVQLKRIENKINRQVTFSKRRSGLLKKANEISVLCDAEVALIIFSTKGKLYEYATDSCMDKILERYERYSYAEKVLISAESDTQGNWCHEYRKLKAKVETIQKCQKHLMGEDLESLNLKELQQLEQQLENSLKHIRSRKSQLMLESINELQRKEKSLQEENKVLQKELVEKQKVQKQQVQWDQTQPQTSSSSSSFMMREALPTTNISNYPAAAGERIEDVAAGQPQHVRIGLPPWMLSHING
Chain of MADS-box transcription factor 6 (Oryza sativa subsp. japonica (Rice)), Q6EU39 L110R;L118R;L159R;L166R (Q6EU39 whole entry L110R/L118R/L159R/L166R): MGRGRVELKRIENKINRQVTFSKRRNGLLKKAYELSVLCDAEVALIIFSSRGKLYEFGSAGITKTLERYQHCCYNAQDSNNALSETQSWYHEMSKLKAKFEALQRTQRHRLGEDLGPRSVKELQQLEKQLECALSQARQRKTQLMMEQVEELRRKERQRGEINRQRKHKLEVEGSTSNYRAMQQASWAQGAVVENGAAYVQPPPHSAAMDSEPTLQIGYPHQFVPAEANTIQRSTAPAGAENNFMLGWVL
Chain of MADS-box transcription factor 6 (Oryza sativa subsp. japonica (Rice)), Q6EU39 L126R;L134R (Q6EU39 whole entry L126R/L134R): as the sequence (Q6EU39 whole entry L110R/L118R/L159R/L166R) above, with R110L, R118L, L126R, L134R, R159L, R166L counted along it
Chain of MADS-box transcription factor 6 (Oryza sativa subsp. japonica (Rice)), Q6EU39 L159R;L166R (Q6EU39 whole entry L159R/L166R): as the sequence (Q6EU39 whole entry L110R/L118R/L159R/L166R) above, with R110L, R118L counted along it
Chain of MADS-box transcription factor 6 (Oryza sativa subsp. japonica (Rice)), Q6EU39 L110R;L118R (Q6EU39 whole entry L110R/L118R): as the sequence (Q6EU39 whole entry L110R/L118R/L159R/L166R) above, with R159L, R166L counted along it
Chain of MADS-box transcription factor 6 (Oryza sativa subsp. japonica (Rice)), Q6EU39 L110S;L118R (Q6EU39 whole entry L110S/L118R): as the sequence (Q6EU39 whole entry L110R/L118R/L159R/L166R) above, with R110S, R159L, R166L counted along it

Row | Substance | effect of a mutation on the interaction [1] | effect of a mutation on the interaction [2]
1 | MADS-box transcription factor 6 (Oryza sativa subsp. japonica (Rice)), Q6EU39 L110S;L118R | decreasing interaction strength | –
2 | MADS-box transcription factor 6 (Oryza sativa subsp. japonica (Rice)), Q6EU39 L159R;L166R | – | disrupting interaction strength
3 | MADS-box transcription factor 6 (Oryza sativa subsp. japonica (Rice)), Q6EU39 L110R;L118R | – | decreasing interaction strength
4 | MADS-box transcription factor 6 (Oryza sativa subsp. japonica (Rice)), Q6EU39 L110R;L118R;L159R;L166R | disrupting interaction strength | disrupting interaction strength
5 | MADS-box transcription factor 6 (Oryza sativa subsp. japonica (Rice)), Q6EU39 L126R;L134R | disrupting interaction strength | disrupting interaction strength
